Measurements reported in patent publication US20240327530A1 (ICHNOS SCIENCES, published 2024).
Each block holds one binder with its values, some of them ahead of it.

Tests used:
[1] = molecular target: T1, Human IL-1RAP, membrane-bound on human cells (HaCaT, dermal fibroblasts, neutrophils, PBMC, whole blood) (human, UniProt Q9NPH3 21-570); assay: flow cytometry on HaCaT wild-type cells, anti-human IgG PE-Cyanine7, relative geometric MFI (isotype subtracted)
T1 construct: Endogenous protein on cells
T1 sequence: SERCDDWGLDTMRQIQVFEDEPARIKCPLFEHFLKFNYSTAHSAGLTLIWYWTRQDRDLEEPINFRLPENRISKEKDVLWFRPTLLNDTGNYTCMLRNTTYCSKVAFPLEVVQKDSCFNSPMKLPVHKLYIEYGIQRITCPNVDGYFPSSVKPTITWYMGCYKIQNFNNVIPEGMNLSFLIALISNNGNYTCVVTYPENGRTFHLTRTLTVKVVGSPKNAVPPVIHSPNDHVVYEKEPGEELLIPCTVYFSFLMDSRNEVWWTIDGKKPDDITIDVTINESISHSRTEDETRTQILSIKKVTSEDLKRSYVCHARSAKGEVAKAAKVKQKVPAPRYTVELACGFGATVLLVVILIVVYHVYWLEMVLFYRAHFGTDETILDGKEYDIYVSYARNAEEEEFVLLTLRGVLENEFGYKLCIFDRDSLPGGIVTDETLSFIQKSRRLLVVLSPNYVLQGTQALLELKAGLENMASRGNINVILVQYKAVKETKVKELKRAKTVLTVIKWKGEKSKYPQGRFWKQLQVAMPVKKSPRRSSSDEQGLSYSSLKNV
Procedure: A dose-response of anti-human IL-1RAP_candidate_1 (●) or Isotype control_5 (▪) was incubated with various cell lines and cell types. Bound antibodies were detected with a monoclonal anti-human IgG PE-Cyanine7 secondary antibody. The graphs show the nonlinear sigmoidal regression binding curves (Relative Geometric Mean Fluorescence Intensity) for each cell lines. Each data point is a measurement for a given cell line. Multiple independent experiments were performed across several donors (HaCaT and HaCaT IL-1RAP KO: 4 and 3 independent experiments; Human Dermal Fibroblasts: 2 independent experiments—total of 5 donors; Human Neutrophil: 2 experiments—total of 6 donors; Cyno Dermal Fibroblasts: 2 independent experiment—total of 4 donors).
In brief, cells were harvested, counted, and plated at 50,000 cells/well in a 96-well round-bottom plate. […] The cells were gated based on size on FSC vs SSC and analyzed for PE-Cyanine7-geometric mean (geomean) fluorescence intensity using FLOWJO® software. Finally, relative geomean fluorescence intensity was calculated by subtracting fluorescence of anti-human IL-1RAP_candidate_1 per fluorescence of Isotype control_5. […]

[2] = molecular target: T2, Mouse IL-1RAP, membrane-bound on NIH-3T3 cells (mouse, UniProt Q61730 21-570); assay: flow cytometry on NIH-3T3 cells, nonlinear sigmoidal regression
T2 construct: Endogenous protein on cells
T2 sequence (looked up): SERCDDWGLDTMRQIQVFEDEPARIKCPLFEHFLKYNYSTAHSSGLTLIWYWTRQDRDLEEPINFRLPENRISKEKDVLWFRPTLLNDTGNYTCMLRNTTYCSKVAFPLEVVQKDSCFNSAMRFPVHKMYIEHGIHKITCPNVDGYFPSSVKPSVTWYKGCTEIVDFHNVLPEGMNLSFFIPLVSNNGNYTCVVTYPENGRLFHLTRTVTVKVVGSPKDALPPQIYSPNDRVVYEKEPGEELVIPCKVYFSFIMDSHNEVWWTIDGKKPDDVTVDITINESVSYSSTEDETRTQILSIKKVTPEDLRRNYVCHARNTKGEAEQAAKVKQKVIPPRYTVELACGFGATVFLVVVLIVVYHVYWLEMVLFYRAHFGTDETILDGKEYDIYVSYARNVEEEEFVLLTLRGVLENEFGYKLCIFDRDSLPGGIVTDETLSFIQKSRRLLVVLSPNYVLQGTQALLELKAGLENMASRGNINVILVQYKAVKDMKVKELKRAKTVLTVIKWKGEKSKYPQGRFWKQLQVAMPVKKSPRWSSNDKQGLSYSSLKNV
Procedure: (§1) In brief, cells were harvested, counted, and plated at 50′000 cells/well in a 96-well round-bottom plate. The plate was centrifuged at 350 g for 3 minutes and the cells were resuspended in […] of FACS® buffer (PBS (1×)+2.5% FCS+2 mM EDTA+0.05% NaN₃) containing various concentrations (ranging from 20 to 0.0001 μg/ml) of either anti-mouse IL-1RAP_candidate_1 or Isotype control_2 antibodies. Stained cells were incubated for 30 minutes at 4° C., washed twice with FACS® buffer at 350 g for 3 min and resuspended in 100 μl of a monoclonal anti-mouse IgG PE-Cyanine7 secondary antibody (Biolegend, 407114) diluted 1/200 in FACS® buffer. Cells were then washed twice, and resuspended in 200 μl of FACS® buffer containing SYTOX® Green dead cell stain (THERMO FISHER […]®, S34860) and samples were acquired on a CYTOFLEX® instruments (Beckman Coulter). The cells were gated based on size on FSC vs SSC and analysed for PE-Cyanine7-geometric mean (geomean) fluorescence intensity using FLOWJO® software. Finally, relative geomean fluorescence intensity was calculated by subtracting fluorescence of anti-mouse IL-1RAP_candidate_1 per fluorescence of Isotype control_2. As depicted in FIG. 11, anti-mouse IL-1RAP_candidate_1 antibody recognizes membrane-bound IL-1RAP expressed on NIH-3T3 cell line. […] Each data point is a measurement for a given cell line. […]

[3] = molecular target: T2, Mouse IL-1RAP, membrane-bound on …; assay: flow cytometry on NIH-3T3 cells, PE-Cyanine7 secondary antibody, relative mean fluorescence intensity (isotype subtracted); lower of two curves
Procedure: as §1

EC50 (read off the curve) [1]: ~0.1 µg/mL
B1: Anti-IL-1RAP-C8-RecC-ES-IgG1LALA (antibody, V domains shown)
VH: QVQLVQSGAEVKKPGSSVKVSCKASGSPAEPYAIQWVRQAPGQGLEWMGYIIPSLGGYDYAQKFQGRVTITADESTSTAYMELSSLRSEDTAVYYCARGQTLYESGRQFDIWGQGTLVTVSS
VL: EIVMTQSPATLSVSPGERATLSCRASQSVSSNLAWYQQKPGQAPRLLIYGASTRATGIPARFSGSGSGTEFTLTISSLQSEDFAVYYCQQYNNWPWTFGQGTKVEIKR
notes: also called ISB 880-C8-recC-ES

Kd [2]: 1.15 nM
EC50 (read off the curve) [3]: ~0.3 µg/mL
B2: Anti-IL-1RAP-C3-A3 mmIgG2a LALA (antibody, V domains shown)
VH: EVQLLESGGGLVQPGGSLRLSCAASGFIFSHYGMSWVRQAPGKGLEWVSAISYDGEGTLYADSVKGRFTISRDNSKNTLYLQMNSLRAEDTAVYYCARFRYYTAFDYWGQGTLVTVSS
VL: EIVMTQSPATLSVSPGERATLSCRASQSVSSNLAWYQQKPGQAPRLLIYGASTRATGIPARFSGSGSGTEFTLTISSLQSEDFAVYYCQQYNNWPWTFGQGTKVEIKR
notes: also called anti-IL-1RAP-C3-A3 mouse IgG2a LALA
